Assays:
NIK1 = target: T1, NIK1 (Arabidopsis thaliana, UniProt Q9LFS4); assay: Yeast two-hybrid interaction with NIK1-KD; format: binding
T1 construct: The kinase domain of NIK1 (NIK1-KD) (Fontes et al. (2004) Genes Dev. 18:2545); expressed in transfected cells; host or cells: yeast strain MaV203
Experimental: (§2) A ProQuest Two-Hybrid system with Gateway technology (Invitrogen) was used. […] The full-length (BKI1-FL), and various truncated proteins, 1-252 (BKI1-ΔCT1), 1-299 (BKI1-ΔCT2), and 253-337 (BKI1-CT) of BKI1 were cloned into the pEXPAD502 vector. The kinase domain of NIK1 (NIK1-KD) (Fontes et al. (2004) Genes Dev. 18:2545), BAK1 (BAK1-KD), CLV1 (CLV1-KD), BRL1 (BRL1-KD), BRL3 (BRL3-KD), full length TTL, and full-length BIN2 were cloned into the pDBLeu vector. Interactions were tested on SD medium minus Leu, Trp, and His, and containing 25 mM 3-Amino-1,2,4-Triazole (3AT), using the yeast strain MaV203 according to the manufacturer's manual.

[1] = target: kinase-inactive BRI1 (mBRI1-KD) (Arabidopsis thaliana, UniProt O22476, K911E); conditions: yeast two-hybrid, ONPG liquid culture assay
Experimental: as §2

[2] = target: T2, intracellular domain of BRI1 (BRI1-KD) (Arabidopsis thaliana, UniProt O22476); assay: Yeast two-hybrid interaction with BRI1-KD; format: binding
T2 construct: expressed in transfected cells; host or cells: yeast strain MaV203
T2 sequence (O22476 828-1196): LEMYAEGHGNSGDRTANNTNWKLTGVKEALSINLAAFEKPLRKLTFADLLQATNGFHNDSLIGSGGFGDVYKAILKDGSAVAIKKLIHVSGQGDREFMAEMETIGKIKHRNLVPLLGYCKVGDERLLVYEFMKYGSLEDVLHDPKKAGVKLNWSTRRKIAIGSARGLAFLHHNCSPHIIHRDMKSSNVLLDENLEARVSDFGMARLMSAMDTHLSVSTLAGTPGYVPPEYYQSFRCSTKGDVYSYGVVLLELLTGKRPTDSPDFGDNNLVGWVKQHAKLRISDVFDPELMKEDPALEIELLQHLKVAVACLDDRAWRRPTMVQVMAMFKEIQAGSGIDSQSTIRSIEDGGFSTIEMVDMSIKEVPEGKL
Experimental: as §2

CLV1 = target: T3, CLV1 (Arabidopsis thaliana, UniProt Q9SYQ8); assay: Yeast two-hybrid interaction with CLV1-KD; format: binding
T3 construct: expressed in transfected cells; host or cells: yeast strain MaV203
T3 sequence (Q9SYQ8 692-968 limits assumed): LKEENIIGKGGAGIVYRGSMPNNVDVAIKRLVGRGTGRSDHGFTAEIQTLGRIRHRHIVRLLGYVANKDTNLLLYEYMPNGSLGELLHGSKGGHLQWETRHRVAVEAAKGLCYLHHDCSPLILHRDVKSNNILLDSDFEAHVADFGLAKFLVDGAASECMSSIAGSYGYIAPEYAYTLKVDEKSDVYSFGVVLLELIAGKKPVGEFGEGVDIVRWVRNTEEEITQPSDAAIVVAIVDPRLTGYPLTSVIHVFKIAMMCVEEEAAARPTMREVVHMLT
Experimental: (§1) BKI1 fused with GAL4-AD (BKI1-pEXAD502) interacts with the intracellular domain of BRI1 (BRI1-KD), but not CLV1 (CLV1-KD), BRL1 (BRL1-KD), and BRL3 (BRL3-KD), fused with GAL4-DB (in pDBLeu) in yeast. pDBLeu was used as a negative control. Each spot from left to right contains 10 μl yeast cell culture with OD600=0.2, 0.04, 0.008, and 0.0016.

BAK1 = target: T4, BAK1 (Arabidopsis thaliana, UniProt Q94F62); assay: Yeast two-hybrid interaction with BAK1-KD; format: binding
T4 construct: kinase domains of other receptor-like kinases tested, including BAK1 and NIK1; expressed in transfected cells; host or cells: yeast strain MaV203
T4 sequence (Q94F62 289-576 limits assumed): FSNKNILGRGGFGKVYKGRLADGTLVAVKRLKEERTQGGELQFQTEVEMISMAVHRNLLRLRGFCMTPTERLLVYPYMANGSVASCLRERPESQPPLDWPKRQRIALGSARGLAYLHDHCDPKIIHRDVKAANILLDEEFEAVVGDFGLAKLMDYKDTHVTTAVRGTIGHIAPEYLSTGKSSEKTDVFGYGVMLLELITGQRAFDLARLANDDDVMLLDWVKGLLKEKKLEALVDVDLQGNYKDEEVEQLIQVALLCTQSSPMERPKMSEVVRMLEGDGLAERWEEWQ
Experimental: as §2

BRL3 = target: T5, BRL3 (Arabidopsis thaliana, UniProt Q9LJF3); assay: Yeast two-hybrid interaction with BRL3-KD; format: binding
T5 construct: expressed in transfected cells; host or cells: yeast strain MaV203
T5 sequence (Q9LJF3 858-1136 limits assumed): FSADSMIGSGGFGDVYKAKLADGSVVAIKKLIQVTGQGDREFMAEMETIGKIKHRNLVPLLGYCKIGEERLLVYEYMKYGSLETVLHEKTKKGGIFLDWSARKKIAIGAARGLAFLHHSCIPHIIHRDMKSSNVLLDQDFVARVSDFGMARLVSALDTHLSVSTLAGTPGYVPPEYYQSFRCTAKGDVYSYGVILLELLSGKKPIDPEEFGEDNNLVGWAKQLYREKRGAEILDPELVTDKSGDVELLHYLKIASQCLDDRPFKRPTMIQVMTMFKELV
Experimental: as §1

BRL1 = target: T6, BRL1 (Arabidopsis thaliana, UniProt Q9ZWC8); assay: Yeast two-hybrid interaction with BRL1-KD; format: binding
T6 construct: expressed in transfected cells; host or cells: yeast strain MaV203
T6 sequence (Q9ZWC8 859-1147 limits assumed): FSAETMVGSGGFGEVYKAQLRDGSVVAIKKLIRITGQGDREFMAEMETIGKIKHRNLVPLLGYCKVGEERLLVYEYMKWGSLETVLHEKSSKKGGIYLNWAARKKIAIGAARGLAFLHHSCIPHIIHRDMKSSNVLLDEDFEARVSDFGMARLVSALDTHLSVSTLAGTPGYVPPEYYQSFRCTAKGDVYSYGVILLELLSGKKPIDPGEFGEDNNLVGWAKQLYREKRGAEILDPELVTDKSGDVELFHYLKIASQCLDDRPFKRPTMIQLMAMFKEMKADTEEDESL
Experimental: as §1

T1 sequence (Q9LFS4 312-593 limits assumed): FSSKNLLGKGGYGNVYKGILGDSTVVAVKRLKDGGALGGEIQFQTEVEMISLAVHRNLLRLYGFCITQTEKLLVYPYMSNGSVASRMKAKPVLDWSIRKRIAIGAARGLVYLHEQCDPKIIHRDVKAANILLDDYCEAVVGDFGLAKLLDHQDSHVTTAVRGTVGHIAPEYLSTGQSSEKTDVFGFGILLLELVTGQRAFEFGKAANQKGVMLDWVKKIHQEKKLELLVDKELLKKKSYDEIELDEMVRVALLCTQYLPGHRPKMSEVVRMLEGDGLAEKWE
Sequence of kinase-inactive BRI1 (mBRI1-KD) (O22476 828-1196 K911E): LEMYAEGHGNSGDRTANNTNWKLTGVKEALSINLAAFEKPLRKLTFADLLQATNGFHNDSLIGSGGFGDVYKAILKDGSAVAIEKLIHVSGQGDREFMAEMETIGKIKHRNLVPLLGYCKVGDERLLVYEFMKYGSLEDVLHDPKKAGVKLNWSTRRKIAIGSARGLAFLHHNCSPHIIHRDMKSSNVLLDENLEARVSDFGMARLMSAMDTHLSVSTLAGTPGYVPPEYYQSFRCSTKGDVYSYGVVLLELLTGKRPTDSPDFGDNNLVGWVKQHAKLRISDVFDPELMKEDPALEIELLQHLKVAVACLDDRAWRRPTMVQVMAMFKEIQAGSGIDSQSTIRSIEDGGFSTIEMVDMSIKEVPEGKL

B1: BKI1: BRI1-interacting protein of 337 amino acids, negative regulator of brassinosteroid signaling (SEQ ID NO:1) (protein, listed as Arabidopsis thaliana)
chain: METNLQQVKNSSQTFSEKQNPKQEASPSPISSTCSSPSHDFSFTISLQPLSSSSKHISPTLRSPSKTTSSYQQTDPFAVDLSPADEIFFHGHLLPLHLLSHLPVSPRTSTGSYNDGFTLPVKDILPDQPTNNNNNTENAITNISTEAKDDNTEDKAEGEIRVKTKPIKSFSLFGLSKWRKGFESNEREQEQQQQKIKKPMSLDLSHAVKKYIRMLFQKRGNGTQFWNRRQTSSYSFSSSLMGPNGNSKTMINGSYNKRDLIRGRRGELFSAPASMRTSPTNSGHLRVSTAGLSSSSGSTSSSSSDSTMEELQAAIQAAIAHCKNSSAVDRDDKVKDS
- interaction with kinase domain of NIK1 in yeast (NIK1): not
- interaction with kinase-inactive BRI1 relative to kinase active BRI1 [1]: stronger
- interaction with kinase domain of BRI1 in yeast [2]: associated specifically
- interaction with kinase domain of CLV1 in yeast (CLV1): does not interact
- interaction with kinase domain of BAK1 in yeast (BAK1): not
- interaction with kinase domain of BRL3 in yeast (BRL3): does not interact
- interaction with kinase domain of BRL1 in yeast (BRL1): does not interact

From US8008542B2, “Compositions, cells, and plants that include BKI1, a negative regulator of BRI1-mediated BR signaling” (The Salk Institute for Biological Studies, priority 2007, dated 2011)
